Values belong to the binder of their own block, whether it stands above or below them.
Assays:
Details in all cases: both partners purified
recombinant SCRM (1-494) [1] = molecular target: T1, recombinant SCRM (1-494) (A. thaliana, UniProt Q9LSE2 1-494); assay: BLI; Octet Red96, anti-GST probes loaded with 500 nM GST tagged protein, 30 °C, 1× PBS, 2% DMSO, 0.02% Tween20; 1:1 model, steady-state analysis; without Stomidazolone
T1 construct: Used in ITC and BLI; In BLI one partner was loaded GST-tagged on anti-GST probes; also called SCREAM; ICE1; source: E. coli BL21, purified (glutathione resin, thrombin, Superdex-200); not shown: GST, N-terminal, cleaved
T1 sequence (looked up): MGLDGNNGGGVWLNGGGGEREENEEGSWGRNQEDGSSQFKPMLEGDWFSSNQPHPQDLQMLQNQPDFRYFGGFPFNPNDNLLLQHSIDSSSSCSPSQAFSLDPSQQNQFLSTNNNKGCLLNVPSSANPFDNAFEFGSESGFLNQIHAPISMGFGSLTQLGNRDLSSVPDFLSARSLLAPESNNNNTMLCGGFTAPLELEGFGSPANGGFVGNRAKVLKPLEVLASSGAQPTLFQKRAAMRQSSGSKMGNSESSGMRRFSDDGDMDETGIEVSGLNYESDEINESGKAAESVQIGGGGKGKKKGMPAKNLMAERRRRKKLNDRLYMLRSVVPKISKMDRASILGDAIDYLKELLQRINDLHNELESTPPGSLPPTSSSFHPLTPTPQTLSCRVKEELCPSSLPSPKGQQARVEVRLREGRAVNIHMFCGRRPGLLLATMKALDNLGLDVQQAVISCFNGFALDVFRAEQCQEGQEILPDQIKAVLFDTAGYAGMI

recombinant SCRM (1-494) [2] = molecular target: T1, recombinant SCRM (1-494); assay: BLI; Octet Red96, anti-GST probes loaded with 500 nM GST tagged protein, 30 °C, 1× PBS, 2% DMSO, 0.02% Tween20; MUTE pre-incubated with Stomidazolone
recombinant SCRM (1-494) [3] = molecular target: T1, recombinant SCRM (1-494); assay: ITC; Malvern PEAQ-ITC, 30 °C, PBS pH 7.4, 2% DMSO, 1 mM DTT; MUTE pre-incubated with Stomidazolone
recombinant SCRM (1-494) [4] = molecular target: T1, recombinant SCRM (1-494); assay: ITC; Malvern PEAQ-ITC, 30 °C, PBS pH 7.4, 2% DMSO, 1 mM DTT; without Stomidazolone

Kd (recombinant SCRM (1-494) [1]): 7.5 ± 1.2 nM
Kd (recombinant SCRM (1-494) [2]): 856 ± 15.1 nM
B1: recombinant MUTE (1-202), as used in BLI (natural protein, A. thaliana, UniProt Q9M8K6 1-202, looked up)
chain: MSHIAVERNRRRQMNEHLKSLRSLTPCFYIKRGDQASIIGGVIEFIKELQQLVQVLESKKRRKTLNRPSFPYDHQTIEPSSLGAATTRVPFSRIENVMTTSTFKEVGACCNSPHANVEAKISGSNVVLRVVSRRIVGQLVKIISVLEKLSFQVLHLNISSMEETVLYFFVVKIGLECHLSLEELTLEVQKSFVSDEVIVSTN
notes: also called full-length MUTE; source: E. coli BL21, purified (glutathione resin)

Kd (recombinant SCRM (1-494) [3]): 900 ± 34.5 nM
Kd (recombinant SCRM (1-494) [4]): 9.5 ± 1.6 nM
B2: recombinant MUTE (1-202), as used in ITC (natural protein, A. thaliana, UniProt Q9M8K6 1-202, looked up)
chain: B1 chain
notes: also called full-length MUTE; source: E. coli BL21, purified (glutathione resin, thrombin, Superdex-200); not shown: GST, N-terminal, cleaved
